Experiments:
[1] = target: T1, soluble KDR extracellular domain (ECD) (Calbiochem) (human, UniProt P35968 20-764); assay: High Antigen ELISA, KDR coat 500 ng/mL, supernatant 1:2025
T1 construct: extracellular domain; Bought protein; also called KDR-ECD; VEGF Receptor 2 D1-7, Cat. #676490
Experimental: (§1) ELISA plates were coated with a greater amount of KDR (at 500 ng/mL) in comparison with the Limited Antigen Quantitation assay described below. Sample containing antibody (Ab) was titrated on the KDR-coated ELISA plates and was incubated overnight at 4° C. to allow Ab binding to approach equilibrium. Titration of Ab in sample covered a dilution range of 1:25 to 1:18,225. A standard curve of KDR-specific antibody of known concentration was used to define the linear range of the assay. Data within the linear range were used to derive the relative concentration of KDR-specific Ab in each titrated sample. The high KDR concentration and the overnight incubation limited the effect of Ab affinity, allowing quantitation of the relative amount of KDR-specific Ab present in each sample.

[2] = target: T1, soluble KDR extracellular domain (ECD) …; assay: Limited Antigen ELISA, KDR coat 12.5 ng/mL, supernatant 1:25
Experimental: (§2) Samples containing one concentration of antibody (Ab) (1:25 dilution) were incubated overnight to allow Ab binding to approach equilibrium. The low antigen concentration limited the effect of antibody concentration, allowing ranking of the antibodies based on their relative affinity.

[3] = target: T1, soluble KDR extracellular domain (ECD) …; assay: Limited Antigen ELISA, KDR coat 3.125 ng/mL, supernatant 1:25
Experimental: as §2

[4] = target: T1, soluble KDR extracellular domain (ECD) …; assay: Limited Antigen ELISA, KDR coat 25 ng/mL, supernatant 1:25
Experimental: as §2

[5] = target: T1, soluble KDR extracellular domain (ECD) …; assay: High Antigen ELISA, KDR coat 500 ng/mL, supernatant 1:675
Experimental: as §1

[6] = target: T1, soluble KDR extracellular domain (ECD) …; assay: High Antigen ELISA, KDR coat 500 ng/mL, supernatant 1:25
Experimental: as §1

[7] = target: T1, soluble KDR extracellular domain (ECD) …; assay: High Antigen ELISA, KDR coat 500 ng/mL, supernatant 1:225
Experimental: as §1

[8] = target: T1, soluble KDR extracellular domain (ECD) …; assay: High Antigen ELISA, KDR coat 500 ng/mL, supernatant 1:18,225
Experimental: as §1

[9] = target: T1, soluble KDR extracellular domain (ECD) …; assay: High Antigen ELISA, KDR coat 500 ng/mL, supernatant 1:75
Experimental: as §1

[10] = target: T1, soluble KDR extracellular domain (ECD) …; assay: High Antigen ELISA, KDR coat 500 ng/mL, supernatant 1:6075
Experimental: as §1

[11] = target: KDR endogenously expressed on human umbilical vein endothelial cells (HUVEC) (human, UniProt P35968 20-1356); assay: cell-based or functional assay
[12] = target: T1, soluble KDR extracellular domain (ECD) …; assay: Limited Antigen ELISA, KDR coat 6.25 ng/mL, supernatant 1:25
Experimental: as §2

[13] = target: T1, soluble KDR extracellular domain (ECD) …; assay: Limited Antigen ELISA, KDR coat 50 ng/mL, supernatant 1:25
Experimental: as §2

Chain of KDR endogenously expressed on human umbilical vein endothelial cells (HUVEC) (P35968 20-1356): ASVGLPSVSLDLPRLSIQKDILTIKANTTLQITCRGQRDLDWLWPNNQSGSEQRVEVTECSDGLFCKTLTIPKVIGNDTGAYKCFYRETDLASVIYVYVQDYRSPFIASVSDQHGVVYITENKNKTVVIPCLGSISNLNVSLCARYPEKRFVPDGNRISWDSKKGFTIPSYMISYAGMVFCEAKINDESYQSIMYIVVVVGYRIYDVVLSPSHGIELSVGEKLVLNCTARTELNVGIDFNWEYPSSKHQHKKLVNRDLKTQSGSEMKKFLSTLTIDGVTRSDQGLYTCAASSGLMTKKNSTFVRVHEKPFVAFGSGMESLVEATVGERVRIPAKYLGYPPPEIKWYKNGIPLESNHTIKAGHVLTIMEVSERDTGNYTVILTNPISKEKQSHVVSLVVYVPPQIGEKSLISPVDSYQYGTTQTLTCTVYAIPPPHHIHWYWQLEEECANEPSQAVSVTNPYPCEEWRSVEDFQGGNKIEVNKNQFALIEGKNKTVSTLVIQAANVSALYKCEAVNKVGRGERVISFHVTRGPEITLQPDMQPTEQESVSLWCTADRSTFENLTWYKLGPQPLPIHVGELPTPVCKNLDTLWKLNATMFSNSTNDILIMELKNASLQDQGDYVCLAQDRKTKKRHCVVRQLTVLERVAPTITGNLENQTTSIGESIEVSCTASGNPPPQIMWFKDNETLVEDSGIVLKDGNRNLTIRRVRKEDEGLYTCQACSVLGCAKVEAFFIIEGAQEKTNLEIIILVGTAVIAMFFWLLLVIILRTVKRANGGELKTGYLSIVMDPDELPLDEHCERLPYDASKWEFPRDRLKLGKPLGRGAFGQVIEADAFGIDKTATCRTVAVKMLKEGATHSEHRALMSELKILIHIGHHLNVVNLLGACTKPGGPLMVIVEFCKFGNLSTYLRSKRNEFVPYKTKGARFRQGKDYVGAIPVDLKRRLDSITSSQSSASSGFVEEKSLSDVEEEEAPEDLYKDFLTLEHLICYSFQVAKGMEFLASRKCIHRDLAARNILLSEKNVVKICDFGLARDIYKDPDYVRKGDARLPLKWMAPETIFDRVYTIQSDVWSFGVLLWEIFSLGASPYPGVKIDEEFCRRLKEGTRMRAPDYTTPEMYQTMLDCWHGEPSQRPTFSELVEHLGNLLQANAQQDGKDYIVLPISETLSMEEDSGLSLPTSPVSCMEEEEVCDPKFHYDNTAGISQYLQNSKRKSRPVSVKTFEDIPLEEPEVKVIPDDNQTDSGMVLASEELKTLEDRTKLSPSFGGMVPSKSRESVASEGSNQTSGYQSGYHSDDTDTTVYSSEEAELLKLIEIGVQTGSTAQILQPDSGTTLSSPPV
T1 sequence (P35968 20-764): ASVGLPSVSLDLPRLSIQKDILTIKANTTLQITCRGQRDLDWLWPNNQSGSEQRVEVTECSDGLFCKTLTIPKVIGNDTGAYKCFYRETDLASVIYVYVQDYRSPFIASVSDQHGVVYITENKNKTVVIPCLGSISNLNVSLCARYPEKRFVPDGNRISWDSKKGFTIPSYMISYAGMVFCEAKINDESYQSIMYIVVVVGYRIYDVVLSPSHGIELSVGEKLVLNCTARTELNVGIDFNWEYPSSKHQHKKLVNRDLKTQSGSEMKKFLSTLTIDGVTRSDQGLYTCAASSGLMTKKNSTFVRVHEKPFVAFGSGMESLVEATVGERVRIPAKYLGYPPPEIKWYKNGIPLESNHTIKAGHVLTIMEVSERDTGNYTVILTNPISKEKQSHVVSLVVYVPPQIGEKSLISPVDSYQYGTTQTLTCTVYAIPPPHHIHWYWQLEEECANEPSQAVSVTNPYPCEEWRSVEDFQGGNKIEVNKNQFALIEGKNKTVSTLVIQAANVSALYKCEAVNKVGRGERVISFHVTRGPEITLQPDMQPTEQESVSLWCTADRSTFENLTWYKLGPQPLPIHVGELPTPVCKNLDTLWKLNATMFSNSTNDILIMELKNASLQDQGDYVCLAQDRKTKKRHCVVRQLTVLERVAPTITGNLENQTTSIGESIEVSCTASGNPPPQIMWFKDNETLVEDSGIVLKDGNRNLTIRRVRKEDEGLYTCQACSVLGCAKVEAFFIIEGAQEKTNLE

B1: 24C9 (antibody, V domains shown)
VH: EVQLVESGGGLVKPGGSLRLSCAASGFTFSTYSMNWVRQAPGKGLEWVSFISGRSSYIYYADSVKGRFTISRDNAKNSLYLQMNSLRAEDTAVYYCSKDDWFEELWGQGTLVTVSS
VL: DIQMTQSPSSLSASVGDRVTITCRASQGIRNDLGWYQQKPGKAPKRLIYATFSLQSGVPSRFSGSGSGTEFTLTISSLQPEDFATYYCLQHNRYPWTFGQGTKVEIK
notes: Fully human mAb from XenoMouse hybridoma, tested as hybridoma supernatant
ELISA reading [1]: 0.54 | ELISA reading [2]: 0.13 | ELISA reading [3]: 0.07 | ELISA reading [4]: 0.23 | ELISA reading [5]: 1.45 | ELISA reading [6]: 3.67 | ELISA reading [7]: 2.14 | ELISA reading [8]: 0.11 | ELISA reading [9]: 2.48 | ELISA reading [10]: 0.2 | VEGF-E-mediated Survival % Inhibition (Average) [11]: 72% | VEGF-E-mediated Survival % Inhibition (n = 1) [11]: 72% | VEGF-E-mediated Survival % Inhibition (n = 2) [11]: 72% | ELISA reading [12]: 0.09 | ELISA reading [13]: 0.5

B2: 32G7 (antibody, V domains shown)
VH: EVQLVESGGGLVKPGGSLRLSCAASGFTISSYSMNWVRQAPGKGLEWVSFISSRSNYIYYADSVKGRFTISRDNAKNSLYLQMNSLRAEDTAVYYCSKDDWFEELWGQGTLVTVSS
VL: DIQMTQSPSSLSASVGDRVTITCRASQDIRNDLGWYQQKPGKAPKRLIYAASSLQSGVPSRFSGSGSGTEFTLTISSLQPEDFATYYCLQHNSFPWTFGQGTKVEIK
notes: as for B1
ELISA reading [1]: 0.38 | ELISA reading [2]: 0.11 | ELISA reading [3]: 0.07 | ELISA reading [4]: 0.15 | ELISA reading [5]: 0.55 | ELISA reading [6]: 2.03 | ELISA reading [7]: 0.96 | ELISA reading [8]: 0.11 | ELISA reading [9]: 1.27 | ELISA reading [10]: 0.24 | VEGF-E-mediated Survival % Inhibition (Average) [11]: 62% | VEGF-E-mediated Survival % Inhibition (n = 1) [11]: 69% | VEGF-E-mediated Survival % Inhibition (n = 2) [11]: 54% | ELISA reading [12]: 0.08 | ELISA reading [13]: 0.19

B3: 33B1 (antibody, V domains shown)
VH: EVQLVESGGGLVKPGGSLRLSCAASGFTFSSYTMNWVRQAPGKGLEWVSFIDSRSSYIYYADSVKGRFTISRDNAKNSLYLQMNSLRAEDTAVYYCSKDDWFEELWGQGTLVTVSS
VL: DIQMTQSPSSLSASVGDRVTITCRASQGIRNDLGWYQQKPGKAPKRLIYATSSLQSGVPSRFSGSGSGTEFTLTISSLQPEDFATYYCLHHNSFPWTFGQGTKVEIK
notes: as for B1
ELISA reading [1]: 0.55 | ELISA reading [2]: 0.12 | ELISA reading [3]: 0.08 | ELISA reading [4]: 0.2 | ELISA reading [5]: 1.1 | ELISA reading [6]: 2.71 | ELISA reading [7]: 1.62 | ELISA reading [8]: 0.2 | ELISA reading [9]: 2.32 | ELISA reading [10]: 0.25 | VEGF-E-mediated Survival % Inhibition (Average) [11]: 67% | VEGF-E-mediated Survival % Inhibition (n = 1) [11]: 66% | VEGF-E-mediated Survival % Inhibition (n = 2) [11]: 68% | ELISA reading [12]: 0.08 | ELISA reading [13]: 0.23

B4: 29A3 (antibody, V domains shown)
VH: QVQLQESGPGLVKPSETLSLTCTVSGGSISSYFWSWIRQPAGKGLEWIGRIYFSGRTNYNPSLKSRVTMSVETSKNQFSLKLNSVTAADTAVYYCARDGGWNYDVAFDYWGQGTLVTVSS
VL: QAVLTQPSSLSASPGASASLTCTLRSGINVGTYRIYWYQQKPGSPPQYLLRYKSDSDQLQGSGVPSRFSGSKDASANAGILLISGLQSEDEADYYCMVWHSNTWVFGGGTKLTVL
notes: as for B1
ELISA reading [1]: 1.91 | ELISA reading [2]: 0.49 | ELISA reading [3]: 0.16 | ELISA reading [4]: 1.13 | ELISA reading [5]: 3.32 | ELISA reading [6]: 3.89 | ELISA reading [7]: 3.85 | ELISA reading [8]: 0.24 | ELISA reading [9]: 4.06 | ELISA reading [10]: 0.57 | VEGF-E-mediated Survival % Inhibition (Average) [11]: -10% | VEGF-E-mediated Survival % Inhibition (n = 1) [11]: -1% | VEGF-E-mediated Survival % Inhibition (n = 2) [11]: -20% | ELISA reading [12]: 0.27 | ELISA reading [13]: 2.27

B5: 27D10 (antibody, V domains shown)
VH: QLQLQESGPGLVKPSETLSLTCTVSGGSISSRSDYWGWIRQPPGKGLEWIGTIYYSGSTFYNPSLKSRVTISVDTSKNQFSLKLSSVTAADTAVYYCARQQLVLYYFDYWGQGTLVTVSS
VL: not shown
notes: as for B1
ELISA reading [1]: 1.87 | ELISA reading [2]: 0.25 | ELISA reading [3]: 0.12 | ELISA reading [4]: 0.54 | ELISA reading [5]: 3.79 | ELISA reading [6]: 4.09 | ELISA reading [7]: 3.95 | ELISA reading [8]: 0.41 | ELISA reading [9]: 4.02 | ELISA reading [10]: 0.89 | VEGF-E-mediated Survival % Inhibition (Average) [11]: 57% | VEGF-E-mediated Survival % Inhibition (n = 1) [11]: 50% | VEGF-E-mediated Survival % Inhibition (n = 2) [11]: 64% | ELISA reading [12]: 0.14 | ELISA reading [13]: 1.36

B6: 32F4 (antibody, V domains shown)
VH: QLQLQESGPGLVKPSGTLSLSCTVSGGSISSRSDYWGWIRQPPGKGLEWIGTIYYSGNTFYNPSLKSRVTISVDTSKKQFSLKLSSVTAADTAVYYCARQQLVLYYFDYWGQGTLVTVSS
VL: EIVLTQSPGTLSLSPGERATLSCRTSQSVSSSYLAWYQQKPGQAPRLLIYGASSRATGVPDRFSGSGSGTDFSLTISRLEPEDFAVYYCQQYGSSPPLTFGGGTKVEIK
notes: as for B1
ELISA reading [1]: 2.71 | ELISA reading [2]: 0.74 | ELISA reading [3]: 0.23 | ELISA reading [4]: 1.09 | ELISA reading [5]: 4.61 | ELISA reading [6]: 4.79 | ELISA reading [7]: 6 | ELISA reading [8]: 0.5 | ELISA reading [9]: 5.56 | ELISA reading [10]: 0.97 | VEGF-E-mediated Survival % Inhibition (Average) [11]: 64% | VEGF-E-mediated Survival % Inhibition (n = 1) [11]: 64% | VEGF-E-mediated Survival % Inhibition (n = 2) [11]: 64% | ELISA reading [12]: 0.36 | ELISA reading [13]: 2.22

B7: 27A3 (antibody, V domains shown)
VH: QLQLQESGPGLVKPSETLSLTCTVSGGSISSRSDYWGWIRQPPGKGLEWIGTIYYSGDTYYNPSLKSRVTISVDTSKNQFSLKLSSVTAADTAVYYCARQQLVLYYFDYWGQGTLVTVSS
VL: EIVLTQSPGTLSLSPGERATLSCRASQSVSSSYLAWYQQKPGQAPRLLIYATSNRATGIPDRFSGSGSGTDFTLTISRLEPEDFAVYYCQQHGSSPPLTFGGGTKVEIK
notes: as for B1
ELISA reading [1]: 2.05 | ELISA reading [2]: 0.54 | ELISA reading [3]: 0.15 | ELISA reading [4]: 1.26 | ELISA reading [5]: 3.93 | ELISA reading [6]: 4.79 | ELISA reading [7]: 5.26 | ELISA reading [8]: 0.4 | ELISA reading [9]: 4.72 | ELISA reading [10]: 0.96 | VEGF-E-mediated Survival % Inhibition (Average) [11]: 58% | VEGF-E-mediated Survival % Inhibition (n = 1) [11]: 63% | VEGF-E-mediated Survival % Inhibition (n = 2) [11]: 52% | ELISA reading [12]: 0.26 | ELISA reading [13]: 2.3

B8: 29D4 (antibody, V domains shown)
VH: QLQLQESGPGLVKPSETLSLTCTVSGGSISSRSNYWGWIRQPPGKGLEWIGTIYYSGHTYYNPSLKSRVSISVDTSKNQFSLKLSSVTATDTALYYCARQQLVLYYFEYWGQGTLVTVSS
VL: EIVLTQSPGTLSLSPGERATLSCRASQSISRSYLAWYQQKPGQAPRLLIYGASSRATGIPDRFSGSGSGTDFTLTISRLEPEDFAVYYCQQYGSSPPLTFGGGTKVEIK
notes: as for B1
ELISA reading [1]: 2.06 | ELISA reading [2]: 0.8 | ELISA reading [3]: 0.23 | ELISA reading [4]: 1.87 | ELISA reading [5]: 4.09 | ELISA reading [6]: 4.24 | ELISA reading [7]: 6 | ELISA reading [8]: 0.25 | ELISA reading [9]: 5.57 | ELISA reading [10]: 0.66 | VEGF-E-mediated Survival % Inhibition (Average) [11]: 66% | VEGF-E-mediated Survival % Inhibition (n = 1) [11]: 64% | VEGF-E-mediated Survival % Inhibition (n = 2) [11]: 67% | ELISA reading [12]: 0.41 | ELISA reading [13]: 3.31
